According to article PMC6471467, “Comparing Gly^11/DAla^11-Replacement vs. the in-Situ Neprilysin-Inhibition Approach on the Tumor-targeting Efficacy of the ^111In-SB3/^111In-SB4 Radiotracer Pair” (Molecules, 2019):
“And” between values parts separate entries of the source, which are not always exact repeats. Equal entries are not always repeated. Where two headings read alike, the source gives them in different places. Peptide text beside a SMILES is read from it.

How the values were obtained:
[1] = molecular target: GRPR (Homo sapiens, UniProt P30550); test: biochemical
Chain of GRPR (P30550 whole entry): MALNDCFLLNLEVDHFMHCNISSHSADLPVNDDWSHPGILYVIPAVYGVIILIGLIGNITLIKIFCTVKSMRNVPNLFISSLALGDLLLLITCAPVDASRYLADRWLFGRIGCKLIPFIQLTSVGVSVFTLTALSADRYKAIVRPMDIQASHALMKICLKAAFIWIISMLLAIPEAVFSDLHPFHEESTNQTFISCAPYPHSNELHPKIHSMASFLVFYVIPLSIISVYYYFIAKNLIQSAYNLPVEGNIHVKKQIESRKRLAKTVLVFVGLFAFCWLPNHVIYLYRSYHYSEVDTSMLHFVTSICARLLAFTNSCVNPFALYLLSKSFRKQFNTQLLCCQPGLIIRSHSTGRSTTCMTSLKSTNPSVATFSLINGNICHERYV

[2] = In vivo stability in peripheral mouse blood (radio-HPLC); set-up: species or system mice; conditions: blood 5 min pi; for Intact radiotracer in mouse blood, representative radiochromatogram, PA-coinjection: coinjection of 300 µg phosphoramidon (PA), HPLC system 2, single representative sample (Figure 3c,d); for Intact radiotracer in mouse blood, representative radiochromatogram: without PA-coinjection, HPLC system 2, single representative sample (Figure 3a,b); for Intact radiotracer in peripheral mouse blood: healthy male Swiss albino mice, iv 3 nmol peptide, without PA, radio-HPLC, mean ± sd, n = 3
Experimental: For stability experiments (approved protocol # 1609, Prefecture of Attica), healthy male Swiss albino mice (30 ± 5 g, NCSR “Demokritos” Animal House Facility) were used. The radioligand, ^111In-SB3 or ^111In-SB4, was injected as a 100 μL bolus (11–22 MBq, 3 nmol total peptide) in the tail vein together with injection solution (100 µL; control) or with a phosphoramidon (PA)-solution (100 µL injection solution containing 300 µg PA). Animals were euthanized and blood (0.5–1 mL) was directly withdrawn from the heart and transferred in a pre-chilled EDTA-containing Eppendorf tube on ice. Blood samples were centrifuged for 10 min at 2000 g/4 °C and plasma was collected. After addition of an equal volume of ice-cold MeCN the mixture was centrifuged for 10 min at 15,000 g/4 °C. The supernatant was concentrated under a N2-flux at 40 °C to 0.05-0.1 mL, diluted with saline (0.4 mL), filtered through a 0.22 μm Millex GV filter (Millipore, Milford, USA) and analyzed by RP-HPLC. The Symmetry Shield RP18 (5 μm, 3.9 mm × 20 mm) column was eluted at a flow rate of 1.0 mL/min with the following linear gradient (system 2): 0% B at 0 min to 10% B in 10 min and then in 40 min to 30% B; A = 20 mM ammonium acetate and B = MeCN. The tR of the intact radiopeptide was determined by coinjection with the ^111In-SB3 or ^111In-SB4 reference in the HPLC.

[3] = Biodistribution in SCID mice bearing PC-3 xenografts; format: in vivo; conditions: female, mouse, pancreas, total radioactivity, average ± sd; for tissue uptake at 4 h: 4 h pi; for tissue uptake at 24 h: 24 h pi, n = 4, read-out: Pancreatic uptake, 24 h pi
Experimental: A suspension containing freshly harvested human PC-3 cells (≈150 μL of a ≈1.2 × 10^7 cells) was subcutaneously injected in the flanks of female SCID mice (15 ± 3 g, six weeks of age at the day of arrival, NCSR “Demokritos” Animal House Facility).
Animals were euthanized at 4 and 24 h pi and dissected; samples of blood, tumors and organs of interest were collected, weighed and measured for radioactivity in the gamma counter. Intestines and stomach were not emptied of their contents. Data was calculated as percent injected dose per gram tissue (%ID/g) with the aid of standard solutions and represent mean values±sd, n = 4.

[4] = small library of ^99mTc-labeled analogs with acyclic tetraamine chelator; cited from earlier work
Excerpt: Earlier work on the development of GRPR-antagonists generated a solid body of structure-activity relationships data, pinpointing at important factors for sustained in vivo action. […] Metabolic stability could be enhanced by suitable structural modifications, including DAla^11/Gly^11 in BBN-based or DAla^24/Gly^24 in GRP-based peptide ligands.

[5] = iv, with phosphoramidon (PA), 300 µg co-injected (NEP-inhibition), coinjection of 300 µg PA, n = 4, read-out: Pancreatic uptake, 4 h pi, PA-coinjection
[6] = iv 10 pmol peptide, control, n = 4, read-out: Pancreatic uptake, 4 h pi

| Compound | IC50 [1] | Intact radiotracer in mouse blood, representative radiochromatogram, PA-coinjection [2] | Intact radiotracer in mouse blood, representative radiochromatogram [2] | Intact radiotracer in peripheral mouse blood [2] | tissue uptake at 4 h [3, 5] | tissue uptake at 24 h ([3]; iv 10 pmol peptide) | tissue uptake at 4 h [3, 6] | Metabolic stability, rank within the library [4] |
| --- | --- | --- | --- | --- | --- | --- | --- | --- |
| CCNC(=O)[C@H](CC(C)C)NC(=O)[C@H](Cc1c[nH]cn1)NC(=O)CNC(=O)[C@@H](NC(=O)[C@H](C)NC(=O)[C@H](Cc1c[nH]c2ccccc12)NC(=O)[C@H](CCC(N)=O)NC(=O)[C@@H](Cc1ccccc1)NC(=O)COCC(=O)Nc1ccc(CNC(=O)CN2CCN(CC(=O)O)CCN(CC(=O)O)CCN(CC(=O)O)CC2)cc1)C(C)C [SB3] | 0.0046 ± 0.0003 µM |  |  |  |  |  |  |  |
| CCNC(=O)[C@H](CC(C)C)NC(=O)[C@H](Cc1c[nH]cn1)NC(=O)[C@@H](C)NC(=O)[C@@H](NC(=O)[C@H](C)NC(=O)[C@H](Cc1c[nH]c2ccccc12)NC(=O)[C@H](CCC(N)=O)NC(=O)[C@@H](Cc1ccccc1)NC(=O)COCC(=O)Nc1ccc(CNC(=O)CN2CCN(CC(=O)O)CCN(CC(=O)O)CCN(CC(=O)O)CC2)cc1)C(C)C [SB4, DOTA-p-aminomethylaniline-diglycolic acid-DPhe-Gln-Trp-Ala-Val-DAla-His- Leu-NHEt] (HELM PEPTIDE1{[O=C(O)CN1CCN(CC(=O)O)CCN(CC(=O)NCc2ccc(NC(=O)COCC(=O)[*:2])cc2)CCN(CC(=O)O)CC1].[dF].Q.W.A.V.[dA].H.L.[CCN[*:1]]}$$$$V2.0) | 0.0112 µM and 0.0107 µM |  |  |  |  |  |  |  |
| CCNC(=O)[C@H](CC(C)C)NC(=O)[C@H](Cc1c[nH]cn1)NC(=O)CNC(=O)[C@@H](NC(=O)[C@H](C)NC(=O)[C@H](Cc1c[nH]c2ccccc12)NC(=O)[C@H](CCC(N)=O)NC(=O)[C@@H](Cc1ccccc1)NC(=O)COCC(=O)Nc1ccc(CNC(=O)CN2CCN(CC(=O)O)CCN(CC(=O)O)CCN(CC(=O)O)CC2)cc1)C(C)C [^111In-SB3, metal not drawn] |  | 98.9 % intact radiotracer | 55 % intact radiotracer | 56 ± 2 % intact | 33.1 ± 6.2 %ID/g | 0.6 ± 0.1 %ID/g | 3.5 ± 0.4 %ID/g |  |
| CCNC(=O)[C@H](CC(C)C)NC(=O)[C@H](Cc1c[nH]cn1)NC(=O)[C@@H](C)NC(=O)[C@@H](NC(=O)[C@H](C)NC(=O)[C@H](Cc1c[nH]c2ccccc12)NC(=O)[C@H](CCC(N)=O)NC(=O)[C@@H](Cc1ccccc1)NC(=O)COCC(=O)Nc1ccc(CNC(=O)CN2CCN(CC(=O)O)CCN(CC(=O)O)CCN(CC(=O)O)CC2)cc1)C(C)C [^111In-SB4, metal not drawn] (HELM PEPTIDE1{[O=C(O)CN1CCN(CC(=O)O)CCN(CC(=O)NCc2ccc(NC(=O)COCC(=O)[*:2])cc2)CCN(CC(=O)O)CC1].[dF].Q.W.A.V.[dA].H.L.[CCN[*:1]]}$$$$V2.0) |  | 99.7 % intact radiotracer | 77 % intact radiotracer | 80 ± 3 % intact | 4.9 ± 0.7 %ID/g | 0.1 %ID/g | 1.6 ± 0.8 %ID/g |  |
| ^99mTc-[N4-p-aminomethylaniline-diglycolic acid-DPhe^6,DAla^11,Leu^13-NHEt]BBN(6-13) |  |  |  |  |  |  |  | highest metabolic stability |
